Experimental findings from patent US20250116673A1 (published 2025) are described below.

This assay has as its target T1, SARS-CoV-2 Spike protein peptide on HLA-DPA1*01:03 / HLA-DPB1*04:01 (human).
T1 peptide: TFEYVSQPFLMDLE
Description: multimer staining.

B1: TCR4.1 (TCR)
alpha TRAV35 TRAJ42 CDR3: CAGMNYGGSQGNLIF
beta TRBV4-1 TRBJ1-2 CDR3: CASSQGVGYTF
Regarding B1, the binding result is listed as “recognises”.

B2: TCR6.3 (TCR)
alpha TRAV35 TRAJ42 CDR3: CAGMNYGGSQGNLIF
beta TRBV6-3 TRBJ1-2 CDR3: CASSYRGAYGYTF
For the molecule B2, the binding result is “recognises”.
